To fix the notation:
B1: LINE1-full (parent)
chain: UACGUAGGUGGUUUUCCCCUGAUAGUGCUAAGGGGGCCUGGAAGUUUGGACUGGGCAGAGCUCAACACAGCGUGGCAAAGUGGCUGUGGCUAGACUGCCUCUCUGGAUUCCUCGUCACUCAGCAGGGCAUCUCUGAGAGAAAUGCC

The series covers variants of B1. Briefly: self-cleavage, relative activity (ratio to wild type); higher = more cleavage; in vitro, sequencing; the parent is a self-cleaving ribozyme.
Consider U23C U47A, for which the self-cleavage was 1.9.
To A24G A65C belongs 0.16; to G25C C98G, 0.25; to U23C C51U, 0.97.
To U23C C51A belongs 0.98.
As for A24C A65U, the self-cleavage stood at 0.
To A24G U143C belongs 1.12.
The result for G25A A140G reads 1.49; that for U23C U73A, 1.28.
The result for U23C U73C reads 1.81; that for U23C U96C, 0.21.
In the case of U23C U96A, the self-cleavage came to 0.12.
To U23C C146A belongs 0.
The result for A24G A136G reads 1.15; that for U26A A78G, 0.74.
The result for U26A A78U reads 1.61.
For the variant U23C G75C, the self-cleavage stood at 1.23.
Turning to A24G A50U, the self-cleavage came to 1.55.
The result for G25A A141G reads 0.96; that for A24G A92U, 1.34; that for A24U G35A, 0.8.
The result for A24U G35U reads 0.67; that for U23C U132C, 1.58.
The result for U23C U132A reads 1.86; that for A24G U87C, 0.19.
Take A24U A30G: the self-cleavage amounted to 1.09.
In the case of A24G A57G, the self-cleavage came to 1.14.
The result for A24G A57U reads 0.27; that for A24U G80C, 1.41; that for G25C U104A, 1.91.
Regarding A24U U104A, the self-cleavage was 0.65.
The result for A24U U104C reads 1.25; that for U26A A77G, 1.84.
The result for U23A U134G reads 0.89.
The result for A24G G25U reads 1.14.
Consider A24G A138G, for which the self-cleavage is 1.07.
Take G25A C38U: the self-cleavage stood at 0.64.
To A24C U91A belongs 0.57; to A24U G49A, 1.39; to U26A C120A, 1.12.
To U23C U45A belongs 1.25; to U23C U45C, 1.7; to U23C U45G, 1.02.
The result for A24U U62C reads 0.08; that for A24G U102G, 0.54; that for A24G U102C, 1.73.
On to A24G U102A, for which the self-cleavage came out at 1.15.
Take G25U A30G: the self-cleavage worked out at 1.27.
To G25U A79G belongs 0.77; to U23C A136U, 1.19.
To G25A U100C belongs 1.81; to A24U A31U, 1.09.
To U23C U52A belongs 1.39; to U23C U115A, 1.23.
With U23C U115C, the self-cleavage is 1.16.
The result for A24G U47C reads 1.05; that for A24C A138G, 0.88.
The result for A24G A59G reads 0.21.
The result for A24C G139A reads 1.45.
A24G G27U: the self-cleavage turned out to be 1.17.
To U23C A43G belongs 1.11.
Turning to U23C A43U, the self-cleavage is 1.06.
To A24U A107G belongs 2.24; to A24U A107U, 1.64.
As to A24U U119A, the self-cleavage is 1.09.
The result for A24G A64U reads 0.47.
The result for A24G C116U reads 0.65; that for A24G U104C, 2.26.
To A24G U104A belongs 1.24.
For the variant U23C A92G, the self-cleavage turned out to be 0.09.
To U23C A117C belongs 1.51.
To U26A A124C belongs 1.4.
As for G25A U62C, the self-cleavage turned out to be 0.11.
Turning to U23C A65U, the self-cleavage was found to be 0.09.
The result for U23C A65G reads 0.1; that for A24U A64G, 0.23; that for A24U A64U, 0.35.
U23C A31G: the self-cleavage turned out to be 0.85.
The result for A24G C120U reads 1.29; that for A24G C128A, 0.65; that for G25A G105A, 1.27.
To A24C U47C belongs 2.18; to A24G U29A, 1.3.
The result for U26A A117G reads 1.11; that for A24U A69U, 0.09; that for A24U A69G, 0.53.
For the variant A24U U108C, the self-cleavage stood at 1.33.
The result for A24U U108A reads 1.51.
As for U23C A69G, the self-cleavage was 1.2.
To A24C C51U belongs 1.37.
The result for A24G U39A reads 0.77; that for A24G U46G, 1.28.
To A24G U46C belongs 1.74.
Consider A24G U112A, for which the self-cleavage stood at 1.51.
As to A24G U112C, the self-cleavage was determined as 1.41.
To U23C A42C belongs 0.
The result for U23C A42G reads 1.18.
In the case of U23C G106U, the self-cleavage amounted to 1.04.
The result for U23C A30U reads 1.15; that for U23C A30G, 0.89; that for A24U U85C, 0.15.
To U23G U46A belongs 1.3.
The result for A24G G35A reads 0.69.
For A24G G53U, the self-cleavage was found to be 1.03.
The result for A24U A138U reads 1.93.
The result for A24U U96A reads 0.07; that for A24U U96C, 0.07; that for A24U A117G, 0.54.
To U23G A42G belongs 1.46.
With U23A U130A, the self-cleavage is 1.52.
Regarding U23A U130C, the self-cleavage amounted to 1.44.
With G25A U26A, the self-cleavage amounted to 1.07.
With A24U A42G, the self-cleavage was 1.54.
The result for G25A A77G reads 0.92; that for G25A U87C, 0.22.
To U23A U112C belongs 1.18; to U23C C99U, 0.91.
On to U23C G55C, for which the self-cleavage was determined as 0.06.
To A24G U108A belongs 1.49; to A24G U108C, 1.68.
To A24G G34U belongs 0.21.
Turning to A24U U39C, the self-cleavage turned out to be 1.47.
To U26A A140G belongs 1.02; to A24U A136G, 1.64; to G25U G114A, 1.13.
The result for U26A G40U reads 0.37; that for G25A U115A, 1.05.
To A24G U52A belongs 0.79; to U26A G34U, 0.83.
With U23A U132C, the self-cleavage was 0.33.
To A24G G139U belongs 2.56.
To A24G G139A belongs 1.3; to U26A C128U, 0.72.
The result for A24U U87C reads 0.3.
With A24G G33C, the self-cleavage was determined as 0.8.
For the variant U23C C95U, the self-cleavage was 0.22.
As for A24G U130C, the self-cleavage was 1.47.
To U23C A138U belongs 1.84; to A24G G93A, 0.13; to U23C G114C, 2.07.
For the variant U26A A136U, the self-cleavage stood at 1.2.
The result for U23C U39A reads 1.2; that for U23C U39C, 0.87; that for A24G A42G, 1.11.
U23C G53A: the self-cleavage came to 0.87.
The result for U23C C101U reads 1.31; that for A24U U143C, 1.63.
In the case of U23C U109C, the self-cleavage is 1.84.
To U23C U109A belongs 1.49.
The result for U23G U102C reads 1.02; that for A24C A121G, 2.59.
As for A24G U26C, the self-cleavage came out at 0.97.
To G25C A69G belongs 0.14.
The result for U23C U91A reads 0.8; that for A24U C123U, 1.02; that for G25C C116U, 1.52.
To U26A G58U belongs 0.05; to A24U U112C, 1.28; to U23C G126A, 1.18.
On to U26A A31G, for which the self-cleavage amounted to 0.81.
The result for U26A A31C reads 1.04; that for G25U A78G, 0.96; that for U23G, 1.18.
To U23C belongs 1.3; to U26A A67G, 0.4.
To A24U C37G belongs 0.82; to A24U G86U, 0.13.
